# Data from paper PMC9520026, “Densely methylated DNA traps Methyl-CpG–binding domain protein 2 but permits free diffusion by Methyl-CpG–binding domain protein 3”.
# Key:
# MBD3sc [1] = target: T1, MBD3sc (human, UniProt O95983 1-249+Q86YP4:137-178, internal_change); experiment: fluorescence anisotropy; FA: 50 mM Hepes pH 7.5, 100 mM NaCl, 1 mM MgCl2, 10 nM DNA, temperature not stated; SPR: 50 mM Hepes pH 7.5, 150 mM NaCl, 1 mM MgCl2, 1 mM TCEP, 0.05% Tween-20; NMR: 10 mM NaPO4 pH 6.5, 150 mM NaCl, 1 mM DTT, 10% 2H2O, 25 C; conditions: protein: recombinant; tags: N-terminal thioredoxin-His6-TEV site (removal stated only for NMR); label: 5' 6-FAM on strand 1; blunt
# T1 sequence (O95983 other isoform, or with tags, fused parts or gaps): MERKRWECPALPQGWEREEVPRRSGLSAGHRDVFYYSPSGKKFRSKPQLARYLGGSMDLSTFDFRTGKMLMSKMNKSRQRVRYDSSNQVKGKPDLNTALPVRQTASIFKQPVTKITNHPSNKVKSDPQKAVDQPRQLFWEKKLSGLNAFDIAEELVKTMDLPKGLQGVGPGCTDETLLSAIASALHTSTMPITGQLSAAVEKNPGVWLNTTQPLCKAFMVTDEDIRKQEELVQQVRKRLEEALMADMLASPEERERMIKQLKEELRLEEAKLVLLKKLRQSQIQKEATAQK
# MBD2sc [2] = target: T2, MBD2sc (human, UniProt Q9UBB5 150-393+Q86YP4:137-178, internal_change); experiment: as above; conditions: protein: recombinant; tags: N-terminal thioredoxin-His6-TEV site (removal stated only for NMR); label: 5' 6-FAM on strand 1; blunt
# T2 sequence (Q9UBB5 other isoform, or with tags, fused parts or gaps): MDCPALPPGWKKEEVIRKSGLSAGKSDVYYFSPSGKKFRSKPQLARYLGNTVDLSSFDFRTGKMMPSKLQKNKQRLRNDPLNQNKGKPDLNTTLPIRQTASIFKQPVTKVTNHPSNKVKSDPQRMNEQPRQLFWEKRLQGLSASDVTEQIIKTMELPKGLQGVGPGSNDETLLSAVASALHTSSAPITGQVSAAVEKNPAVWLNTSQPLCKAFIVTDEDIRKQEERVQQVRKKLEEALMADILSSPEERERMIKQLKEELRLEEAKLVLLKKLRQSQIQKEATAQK
# [3] = target: T3, MBD2sc (2H,15N, tag cleaved) (human, UniProt Q9UBB5 150-393+Q86YP4:137-178, internal_change); experiment: NMR; FA: 50 mM Hepes pH 7.5, 100 mM NaCl, 1 mM MgCl2, 10 nM DNA, temperature not stated; SPR: 50 mM Hepes pH 7.5, 150 mM NaCl, 1 mM MgCl2, 1 mM TCEP, 0.05% Tween-20; NMR: 10 mM NaPO4 pH 6.5, 150 mM NaCl, 1 mM DTT, 10% 2H2O, 25 C; conditions: protein: recombinant; tags: none (thioredoxin-His6 removed by TEV); blunt
# T3 sequence (Q9UBB5 other isoform, or with tags, fused parts or gaps): as above
# [4] = target: T3, MBD2sc (2H,15N, tag cleaved); experiment: NMR; fast exchange between both sites; FA: 50 mM Hepes pH 7.5, 100 mM NaCl, 1 mM MgCl2, 10 nM DNA, temperature not stated; SPR: 50 mM Hepes pH 7.5, 150 mM NaCl, 1 mM MgCl2, 1 mM TCEP, 0.05% Tween-20; NMR: 10 mM NaPO4 pH 6.5, 150 mM NaCl, 1 mM DTT, 10% 2H2O, 25 C; conditions: protein: recombinant; tags: none (thioredoxin-His6 removed by TEV); blunt
# MBD3sc [5] = target: T1, MBD3sc; experiment: SPR; FA: 50 mM Hepes pH 7.5, 100 mM NaCl, 1 mM MgCl2, 10 nM DNA, temperature not stated; SPR: 50 mM Hepes pH 7.5, 150 mM NaCl, 1 mM MgCl2, 1 mM TCEP, 0.05% Tween-20; NMR: 10 mM NaPO4 pH 6.5, 150 mM NaCl, 1 mM DTT, 10% 2H2O, 25 C; conditions: protein: recombinant; tags: N-terminal thioredoxin-His6-TEV site (removal stated only for NMR); blunt
# MBD2sc [6] = target: T2, MBD2sc; experiment: as above; conditions: protein: recombinant; tags: N-terminal thioredoxin-His6-TEV site (removal stated only for NMR); blunt
binder,measurement,setting,value
17 bp CpG FAM (unmethylated) (dsDNA) DNA 1: CTGCCGCCGAGCGCCTC DNA 2: GAGGCGCTCGGCGGCAG,Kd,MBD3sc [1],8100 ± 400 nM
same,Kd,MBD2sc [2],2800 ± 100 nM
"17 bp mCpG FAM (dsDNA, 5-methylcytosine at C8 of strand 1 and C9 of strand 2 (symmetric)) DNA 1: CTGCCGCCGAGCGCCTC DNA 2: GAGGCGCTCGGCGGCAG",Kd,MBD3sc [1],5900 ± 400 nM
same,Kd,MBD2sc [2],7 ± 2 nM
17 bp CpG-free FAM (dsDNA) DNA 1: CTGGCCCCAGGGCCCTC DNA 2: GAGGGCCCTGGGGCCAG,Kd,MBD3sc [1],14200 ± 300 nM
same,Kd,MBD2sc [2],9100 ± 400 nM
"38 bp, first CpG methylated (dsDNA, 5-methylcytosine at C10 of strand 1 and C28 of strand 2) DNA 1: GGAGGCGCTCGGCGGCAGCCTGGAACGGAATTCTTCTA DNA 2: TAGAAGAATTCCGTTCCAGGCTGCCGCCGAGCGCCTCC",binding result,[3],binds
"38 bp, second CpG methylated (dsDNA, 5-methylcytosine at C26 of strand 1 and C12 of strand 2) DNA 1: GGAGGCGCTCGGCGGCAGCCTGGAACGGAATTCTTCTA DNA 2: TAGAAGAATTCCGTTCCAGGCTGCCGCCGAGCGCCTCC",binding result,[3],binds
"38 bp, both CpG methylated (dsDNA, 5-methylcytosine at C10, C26 of strand 1 and C12, C28 of strand 2) DNA 1: GGAGGCGCTCGGCGGCAGCCTGGAACGGAATTCTTCTA DNA 2: TAGAAGAATTCCGTTCCAGGCTGCCGCCGAGCGCCTCC",binding result,[4],binds
"17 bp mCpG biotin (SPR) (dsDNA, 5-methylcytosine at C8 of strand 1 and C9 of strand 2) DNA 1: CTGCCGCCGAGCGCCTC DNA 2: GAGGCGCTCGGCGGCAG",Kd,MBD3sc [5],1200 ± 200 nM
same,Kd,MBD2sc [6],11 ± 1 nM
17 bp CpG biotin (SPR) (dsDNA) DNA 1: CTGCCGCCGAGCGCCTC DNA 2: GAGGCGCTCGGCGGCAG,Kd,MBD3sc [5],1020 ± 10 nM
same,Kd,MBD2sc [6],1240 ± 80 nM
